Experimental data reported in US20120288511A1 (INDIANA UNIVERSITY RESEARCH AND TECHNOLOGY, published 2012).
Where two headings read alike, the source gives them in different places. Non-standard residues stand in square brackets, D forms with d. No end group written: not given here. *: point of attachment. Palmitoyl = CCCCCCCCCCCCCCCC(=O)*; Aib = CC(C)(N)C(=O)O

Assays:
Assay in all cases: cell-based or functional assay
glucagon receptor [1] = target: T1, glucagon receptor (human, UniProt P47871 26-477)
T1 sequence (P47871 26-477): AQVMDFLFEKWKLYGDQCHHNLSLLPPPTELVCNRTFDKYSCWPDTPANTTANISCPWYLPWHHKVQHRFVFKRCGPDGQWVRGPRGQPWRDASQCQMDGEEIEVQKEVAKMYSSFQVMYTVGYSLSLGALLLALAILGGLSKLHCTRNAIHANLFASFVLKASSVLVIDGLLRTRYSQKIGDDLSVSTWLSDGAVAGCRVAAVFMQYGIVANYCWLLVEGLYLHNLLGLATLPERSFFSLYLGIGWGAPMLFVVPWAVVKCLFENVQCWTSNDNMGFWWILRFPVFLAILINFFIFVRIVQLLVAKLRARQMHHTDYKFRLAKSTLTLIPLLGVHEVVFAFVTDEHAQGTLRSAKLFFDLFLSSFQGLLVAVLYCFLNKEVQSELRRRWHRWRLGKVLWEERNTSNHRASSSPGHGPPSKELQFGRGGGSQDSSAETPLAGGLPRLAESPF

GLP-1 receptor [2] = target: T2, GLP-1 receptor (human, UniProt P43220 24-463)
glucagon receptor [3] = target: T1, glucagon receptor; remark: listed apart in the source
GLP-1 receptor [4] = target: T2, GLP-1 receptor; remark: listed apart in the source
glucagon receptor [5] = target: T1, glucagon receptor; remark: listed apart in the source
glucagon receptor [6] = target: T1, glucagon receptor; remark: listed apart in the source
GLP-1 receptor [7] = target: T2, GLP-1 receptor; remark: listed apart in the source
GLP-1 receptor [8] = target: T2, GLP-1 receptor; remark: listed apart in the source
GLP-1 receptor [9] = target: T2, GLP-1 receptor; remark: listed apart in the source

## HSQGTFTSDYSKYLD[Aib]KAVRLFICWLLDT-NH2 [Glucagon Analog 86]
Glucagon receptor [1]
  EC50 (cAMP luciferase reporter): 0.035 nM
  percent in parentheses (not explained): 43%
GLP-1 receptor [2]
  EC50 (cAMP luciferase reporter): 0.035 nM
  percent in parentheses (not explained): 106%

## HSQGTFTSDKSKYLDEEAVRLFIEWLMNT-NH2 (also: Lys-γGlu-C16 (K(B)) at unstated position) [Glucagon Analog 37]
Glucagon receptor [1]
  EC50 (cAMP luciferase reporter): 0.119 nM
GLP-1 receptor [2]
  EC50 (cAMP luciferase reporter): 0.011 nM

## HSQGTFTSDYSKYLDERRAKEFVQWLMNT-NH2 (not fully specified; also: further groups not given here) [Glucagon Analog 68]
Glucagon receptor [3]
  % Relative Activity vs native glucagon: 104%
  EC50 (cAMP luciferase reporter): 0.068 nM
GLP-1 receptor [4]
  % Relative Activity vs native GLP-1: 44%
  EC50 (cAMP luciferase reporter): 0.075 nM

## HSQGTFTSDKSKYLDEQAAKEFICWLLDT (also: DPP-IV-resistant residue at position 1 or 2, not given here) [Glucagon Analog 57]
Glucagon receptor [5]
  % Relative Activity vs native glucagon: 1%
  EC50 (cAMP luciferase reporter): 4.8 nM

## HSQGTFTSDKSKYLDEQAAKEFIC(PEG 40 kDa)WLLDTGG-NH2 (not fully specified; also: further groups not given here) [Glucagon Analog 78]
Glucagon receptor [6]
  % Relative Activity vs native glucagon: 44%
  EC50 (cAMP luciferase reporter): 140000 nM
GLP-1 receptor [7]
  % Relative Activity vs native GLP-1: 196%
  EC50 (cAMP luciferase reporter): 0.026 nM

## HSQGTFTSDKSKYLDEQAAKEFICWLLDE-NH2 (not fully specified; also: further groups not given here) [Glucagon Analog 82]
Glucagon receptor [6]
  % Relative Activity vs native glucagon: 121%
  EC50 (cAMP luciferase reporter): 14000 nM
GLP-1 receptor [7]
  % Relative Activity vs native GLP-1: 345%
  EC50 (cAMP luciferase reporter): 0.02 nM

## HAQGTFTSDKSKYLDERAAQDFVC(PEG 40 kDa)WLLDT-NH2 (also: other non-coded residues as, not given here) [Glucagon Analog 81]
Glucagon receptor [6]
  % Relative Activity vs native glucagon: 51.4%
  EC50 (cAMP luciferase reporter): 37000 nM
GLP-1 receptor [7]
  % Relative Activity vs native GLP-1: 300%
  EC50 (cAMP luciferase reporter): 0.012 nM

## HSQGTFTSDYSKYLDEQAVRLFICWLLDT-NH2 (not fully specified; also: further groups not given here) [Glucagon Analog 87]
Glucagon receptor [1]
  EC50 (cAMP luciferase reporter): 0.021 nM
  percent in parentheses (not explained): 71%
GLP-1 receptor [2]
  EC50 (cAMP luciferase reporter): 0.013 nM
  percent in parentheses (not explained): 284%

## HSQGTFTSDKSKYLDEQAAKEFICWLLDTE-NH2 (not fully specified; also: further groups not given here) [Glucagon Analog 83]
Glucagon receptor [6]
  % Relative Activity vs native glucagon: 61%
  EC50 (cAMP luciferase reporter): 28000 nM
GLP-1 receptor [7]
  % Relative Activity vs native GLP-1: 288%
  EC50 (cAMP luciferase reporter): 0.024 nM

## HSQGTFTSDYSKYLDSKRAQEFVQWLMNT-NH2 [Peptide 1]
GLP-1 receptor [8]
  EC50 (cAMP luciferase reporter): 0.13 nM

## HSQGTFTSDYSKYLDEEAVRLFICWLMNT-NH2 (also: DPP-IV-resistant residue at position 1 or 2) [Glucagon Analog 32]
Glucagon receptor [1]
  EC50 (cAMP luciferase reporter): 0.22 nM
GLP-1 receptor [2]
  EC50 (cAMP luciferase reporter): 0.007 nM

## HSQGTFTSDYSKYLDERRAKDFVQWLMNT-NH2 (not fully specified; also: further groups not given here) [Glucagon Analog 67]
Glucagon receptor [3]
  % Relative Activity vs native glucagon: 93%
  EC50 (cAMP luciferase reporter): 0.077 nM
GLP-1 receptor [4]
  % Relative Activity vs native GLP-1: 47%
  EC50 (cAMP luciferase reporter): 0.071 nM

## HSQGTFTSDKSKYLDEQAVRLFIC(PEG 40 kDa)WLLDT-NH2 (also: acylated amino acid at position 10, acyl group not given here) [Glucagon Analog 85]
Glucagon receptor [1]
  EC50 (cAMP luciferase reporter): 0.107 nM
  percent in parentheses (not explained): 16%
GLP-1 receptor [2]
  EC50 (cAMP luciferase reporter): 0.013 nM
  percent in parentheses (not explained): 284%

## HSQGTFTSDKSKYLDEQAAKEFICWLLDT (also: DPP-IV-resistant residue at position 1 or 2, not given here) [Glucagon Analog 53]
Glucagon receptor [5]
  % Relative Activity vs native glucagon: 411%
  EC50 (cAMP luciferase reporter): 0.009 nM
GLP-1 receptor [9]
  % Relative Activity vs native GLP-1: 708%
  EC50 (cAMP luciferase reporter): 0.012 nM

## HSQGTFTSDYSKYLDEKRAKEFVQWLMNT-NH2 (not fully specified; also: further groups not given here) [Glucagon Analog 65]
Glucagon receptor [3]
  % Relative Activity vs native glucagon: 264%
  EC50 (cAMP luciferase reporter): 0.053 nM
GLP-1 receptor [4]
  % Relative Activity vs native GLP-1: 64%
  EC50 (cAMP luciferase reporter): 0.036 nM

## HSQGTFTSDK(Palmitoyl)SKYLDEEAVRLFIEWLMNT-NH2 [Glucagon Analog 39]
Glucagon receptor [1]
  EC50 (cAMP luciferase reporter): 2.54 nM
GLP-1 receptor [2]
  EC50 (cAMP luciferase reporter): 0.033 nM

## HSQGTFTSDYSKYLDEEAVRLFICWLMNT-NH2 (also: DPP-IV-resistant residue at position 1 or 2) [Glucagon Analog 34]
Glucagon receptor [1]
  EC50 (cAMP luciferase reporter): 0.404 nM
GLP-1 receptor [2]
  EC50 (cAMP luciferase reporter): 0.018 nM

## HSQGTFTSDYSKYLDSKRAQEFVQWLMNT-NH2 (also: non-coded residues and acylation only) [Glucagon Analog 66]
GLP-1 receptor [4]
  EC50 (cAMP luciferase reporter): 0.13 nM

B1: Peptide 15 (peptide)
peptide: KHSQETFTSDYSKYLDSRRAQDFVQWLMNT
modifications: not fully specified; amidated unless FIG. 1 shows OH; lactam, D-residues, Orn/Dab only as drawn in FIG. 1
GLP-1 receptor [8]
  EC50 (cAMP luciferase reporter): 73.4 nM

## HSQGTFTSDKSKYLDEQAAKEFICWLLDTG (not fully specified) [Glucagon Analog 55]
Glucagon receptor [5]
  % Relative Activity vs native glucagon: 7%
  EC50 (cAMP luciferase reporter): 0.55 nM
GLP-1 receptor [9]
  % Relative Activity vs native GLP-1: 16%
  EC50 (cAMP luciferase reporter): 0.516 nM

## HSQGTFTSDKSKYLDEQAAKEFIC(PEG 40 kDa)WLLDT-NH2 (not fully specified; also: further groups not given here) [Glucagon Analog 79]
Glucagon receptor [6]
  % Relative Activity vs native glucagon: 26%
  EC50 (cAMP luciferase reporter): 240000 nM
GLP-1 receptor [7]
  % Relative Activity vs native GLP-1: 41%
  EC50 (cAMP luciferase reporter): 0.125 nM

## HSQGTFTSDYSKYLDEKRAKEFVCWLLDGGPSSGAPPPS-NH2 (not fully specified; also: further groups not given here) [Glucagon Analog 61]
Glucagon receptor [3]
  % Relative Activity vs native glucagon: 88%
  EC50 (cAMP luciferase reporter): 0.017 nM
GLP-1 receptor [4]
  % Relative Activity vs native GLP-1: 39%
  EC50 (cAMP luciferase reporter): 0.096 nM

B2: Peptide 14 (peptide)
peptide: KHSQETFTSDYSKYLDSRRAQDFVQWLMNT
modifications: not fully specified; amidated unless FIG. 1 shows OH; lactam, D-residues, Orn/Dab only as drawn in FIG. 1
GLP-1 receptor [8]
  EC50 (cAMP luciferase reporter): 33 nM

## HSQGTFTSDKSKYLDEQAAKEFICWLLDTGG (not fully specified) [Glucagon Analog 56]
Glucagon receptor [5]
  % Relative Activity vs native glucagon: 272%
  EC50 (cAMP luciferase reporter): 0.018 nM
GLP-1 receptor [9]
  % Relative Activity vs native GLP-1: 125%
  EC50 (cAMP luciferase reporter): 0.068 nM

## HSQKTFTEDYSKYLDSRRAQDFVQWLMNT (not fully specified; also: further groups not given here) [Peptide 16]
GLP-1 receptor [8]
  EC50 (cAMP luciferase reporter): 121 nM

## HSQGTFTSDYSKYLDEQAVRLFICWLLDGGPSSGAPPPS-NH2 (not fully specified; also: further groups not given here) [Glucagon Analog 84]
Glucagon receptor [1]
  EC50 (cAMP luciferase reporter): 0.132 nM
  percent in parentheses (not explained): 14.4%
GLP-1 receptor [2]
  EC50 (cAMP luciferase reporter): 0.006 nM
  percent in parentheses (not explained): 600%
